# Measured values reported in patent US20200002405A1.
# Read-outs that look alike come from different tables or passages of the source.
# B1: 19.7E (antibody, V domains shown)
# VH: EVQLVESGGGLVRPGGSLRLSCAASGFSFSSYSMHWVRHVPGKGLVWVSYINSDGSTKIYADSVKGRFSISRDNAKNKLYLQMDSLRVEDTAVYSCVRLVHYDWSPFVWGQGTLVTVSS
# VL: EIVLTQSPSTLSASVGDRVTITCRASQSINNWLAWYQEKPGKAPKLLINKASSLESGVPSRFSGSGSGTEFTLTITSLQPDDFATYYCQQYNSNSWTFGQGTKVDMKR
# B2: 25.10C (antibody, V domains shown)
# VH: QVQLQESGGGLVKPGGSLRLSCTASGFNFNKYNMNWVRQAPGKGLEWVSSISALSTYIYYADSLKGRFTVSRDNAKNSLFLQMNSLRDDDTAVYYCAREIRRASTWSADLWGRGTLVTVSS
# VL: DIQMTQSPSSLSASVGDRVIITCRASQSISSSLNWYQQKPGKAPKLLIYAAVNLETGVPSRFSGSGFGTDFTLAISNVQPEDFATYYCQQSDTRTFGRGTKLDVKR
# Legend:
# Test in all cases: cell-based or functional assay
# [1] = molecular target: LASV A19 (lineage II) glycoprotein (Lassa virus, strain A19)
# [2] = molecular target: LASV 237 (lineage III) glycoprotein (Lassa virus, strain 237)
# [3] = molecular target: LASV Pinneo (lineage I) glycoprotein (Lassa virus, strain Pinneo)
# [4] = molecular target: LASV Josiah (lineage IV) glycoprotein, full-length GP (Lassa virus, Josiah strain) (UniProt P08669)
# [5] = molecular target: LASV Josiah (lineage IV) glycoprotein, full-length GP (Lassa virus, Josiah strain) (UniProt P08669); remark: listed apart in the source
# LASV Josiah (lineage IV) glycoprotein, full-length GP (Lassa virus, Josiah strain), sequence (P08669 2-491): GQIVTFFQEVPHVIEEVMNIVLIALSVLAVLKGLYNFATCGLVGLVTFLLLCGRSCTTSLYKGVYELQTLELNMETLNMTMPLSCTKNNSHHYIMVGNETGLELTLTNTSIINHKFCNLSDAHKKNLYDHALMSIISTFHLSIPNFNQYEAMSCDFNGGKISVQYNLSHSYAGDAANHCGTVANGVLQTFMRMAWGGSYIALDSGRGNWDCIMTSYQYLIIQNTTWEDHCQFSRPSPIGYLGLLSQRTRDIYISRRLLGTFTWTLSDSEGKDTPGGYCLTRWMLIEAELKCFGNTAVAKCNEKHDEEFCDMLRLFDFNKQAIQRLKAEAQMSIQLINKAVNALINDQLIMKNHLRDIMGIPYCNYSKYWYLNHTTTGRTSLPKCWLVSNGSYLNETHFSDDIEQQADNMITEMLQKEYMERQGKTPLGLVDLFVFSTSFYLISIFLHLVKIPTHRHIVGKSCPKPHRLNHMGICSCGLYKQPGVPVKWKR
Binder,IC50 (neutralization) [1] [µg/mL],IC80 (neutralization) [1] [µg/mL],IC50 (neutralization) [2] [µg/mL],IC80 (neutralization) [2] [µg/mL],IC50 (neutralization) [3] [µg/mL],IC80 (neutralization) [3] [µg/mL],IC50 (neutralization) [4] [µg/mL],IC80 (neutralization) [4] [µg/mL],IC50 (neutralization) [5] [µg/mL],IC80 (neutralization) [5] [µg/mL]
B1,> 20,> 20,1.06,15,1.56,3.27,5.91,> 20,1.19,> 10
B2,0.104,0.364,0.058,0.18,0.226,0.564,0.094,0.174,0.16,0.247
